Entries after “also recorded” stand apart in the source; their conditions may differ.
Legend:
[1] = Maximum tolerated dose (MTD) in mice; type: in vivo; conditions: for Murine single dose MTD (IP): mice, loadings as in Table 3
Source text: (§1) All injections were given intraperitoneally (IP). […] The MTD is the maximum tolerated equivalent camptothecin dose.

B16 melanoma (B-16-F0) = assay: Tumor growth delay (TGD), subcutaneous B16 melanoma in C57BL/6 mice; type: in vivo, murine; conditions: for relative anti-tumor efficacy (comparison in words): B16 model
Experimental: (§2) Tumors were produced in the […] of the right interscapular region by subcutaneously injecting 1.0×10^5 murine melanoma cells (B-16-F0; ATTC CRL-6322) in a volume of 0.2 ml PBS supplemented with 2% FBS. […] Camptothecin conjugates were dissolved in a 0.1 M Na2HPO4 solution by sonication at 45° C. for 45–60 minutes. Native camptothecins were dissolved in a mixture of 8.3% Cremophor EL/8.3% ethanol in 0.75% saline. All injections were given intraperitoneally (IP). Each treatment group consisted of 10 mice randomly allocated to each group. Tumor volume was calculated according to the formula (length×width×height)/2. Mice with tumors equal to or greater than 2000 mm^3 were euthenized by cervical dislocation. Tumor efficacy of test compounds was determined by calculating the tumor growth delay (TGD): the average time in days for the tumors in the treatment group to reach a fixed volume minus the average time for the tumors in the control group to reach the same volume. An unpaired Student's t-test was done to determine statistical differences. The compounds were tested at different concentrations to determine their MTD. The MTD is the maximum tolerated equivalent camptothecin dose.

[2] = test system: HT-29 human colon carcinomas; assay: Tumor growth delay, HT-29 xenografts in athymic ncr nu/nu mice; conditions: for TGD (days to 500 mm^3) HT-29: PG 50 kD
Experimental: as §2
(§3) In addition to the above-mentioned models, one other syngeneic model was used viz. LL/2 Lewis lung (ATTC CRL-1642) and 2 xenogeneic models were used viz. human NCI-H460 lung carcinomas (ATTC HTB-177) and HT-29 human colon carcinomas (ATTC HTB-38). In these xenogeneic models instead of immunocompetent C57BL/6 mice, immunocompromised athymic ncr nu/nu mice were used. Except for the number of tumor cells implanted to generate tumors the experimental protocol and procedures were identical to that for the B-16/F0 model.

animal tumor models = assay: General comparison of PG-camptothecin conjugates in animal tumor models; set-up: species or system mice; conditions: mouse, in vivo
Source text: as §1

[3] = Aqueous solubility of PG-camptothecin conjugates; conditions: for Aqueous solubility: % CPT in conjugate (w/w): PG-CPT 14, PG-gly-CPT 37, PG-(10-OAc-CPT) 13, PG-(10-O-CPT) 13, PG-gly-(10-O-CPT) 20, PG-(10-OH-CPT) 19, PG-(9-NH-CPT) 14
[4] = test system: NCI-H460 human non-small cell lung cancer xenografts; assay: NCI-H460 xenografts in female nude mice, dosing every 4th day x4; type: in vivo
Experimental: Female nude mice with 7–8 mm subcutaneous NCI-H460 human non-small cell lung cancer xenografts were treated with PG-gly-CPT on days 1, 5, 9, and 13 at a dose of 40 mg/kg 20(S)-camptothecin per injection. The tested dose of 40 mg eq. […] Although there were no deaths, weight loss was approximately 20% of the starting weight. The absolute tumor growth delay (defined as difference in days for tumors to grow from 8 mm to 12 mm between the treated and the control groups) was 43 days for the PG-gly-CPT treated mice.

[5] = test system: human NCI-H460 lung carcinomas; assay: Tumor growth delay, NCI-H460 xenografts in athymic ncr nu/nu mice; type: in vivo; conditions: PG 50 kD
Experimental: as §2, §3

[6] = test system: NCI-H322 human lung cancer; assay: NCI-H322 human lung cancer s.c. in female nude mice; type: in vivo; conditions: 33 kD, 37% loaded, i.v. days 9, 13, 17, 21 at 40 mg/kg 20(S)-camptothecin equivalent
Experimental: The antitumor activity of PG-gly-CPT (33 kD, 37% loaded) on NCI-H322 (ATTC CRL-5806) human lung cancer inoculated s.c. in female nude mice was studied. The drug was injected i.v. on days 9, 13, 17 and 21 at a 20(S)-camptothecin equivalent dose of 40 mg/kg when tumors measured 7–8 mm in diameter. The TGD was 40 days.

[7] = test system: NCI-H1299 human lung cancer cells; assay: NCI-H1299 human lung cancer s.c. in female nude mice; conditions: 30 mg eq. 20(S)-camptothecin every 4th day x4
Experimental: 20(S)-camptothecin/kg in the prior experiment in nude mice, the dose was lowered to 30 mg eq. 20(S)-camptothecin every 4th day×4.

[8] = Table 4, PG 50 kD (PG-CPT: 33 kD)
[9] = second experiment, i.p., same schedule
[10] = CPT loading 19%, dose 33 mg CPT/kg
[11] = CPT loading 33%, dose 38 mg CPT/kg
[12] = CPT loading 39%, dose 40 mg CPT/kg
[13] = CPT loading 47%, dose 40 mg CPT/kg
[14] = 40 mg eq. 20(S)-camptothecin/kg every 4th day x4
[15] = CPT loading 30%, dose 34 mg CPT/kg

Substance: PG-(2-O-acetyl)-CPT
- MTD [1, 8]: ≧80 mg CPT/kg
- TGD (days to 500 mm^3) B16 (B16 melanoma (B-16-F0); CPT loading 15%, dose 80 mg CPT/kg, PG 50 kD): 3.8 days

Substance: PG-(4-NH-butyryl)-CPT
- MTD [1, 8]: ≧80 mg CPT/kg
- TGD (days to 500 mm^3) B16 (B16 melanoma (B-16-F0); CPT loading 32%, dose 80 mg CPT/kg, PG 50 kD): 0.9 days

Substance: PG-(4-O-butyryl)-CPT
- MTD [1, 8]: ~36 mg CPT/kg
- TGD (days to 500 mm^3) B16 (B16 melanoma (B-16-F0); CPT loading 32%, dose 37 mg CPT/kg, PG 50 kD): 2.8 days
- TGD (days to 500 mm^3) HT-29 ([2]; CPT loading 24%, dose 36 mg CPT/kg): 13.1 days

Substance: PG-(9-NH-CPT)
- MTD ([1]; mouse, in vivo): > 25 mg eq. 20(S)-9-aminocamptothecin/kg
- Murine single dose MTD (IP) [1]: >25 mg eq. CPT/kg
- overall efficacy, tolerability and solubility (in words) (animal tumor models): active
- Aqueous solubility [3]: 7000 µg/mL

Substance: PG-(10-O-CPT)
- Murine single dose MTD (IP) [1]: 50 mg eq. CPT/kg
- Aqueous solubility [3]: 10000 µg/mL

Substance: PG-(10-OAc-CPT)
- Murine single dose MTD (IP) [1]: 10–20 mg eq. CPT/kg
- TGD (B16 melanoma (B-16-F0); 50 mg eq. 20(S)-10-hydroxycamptothecin/kg, p<0.01 compared to control): 5.3 days
- relative anti-tumor efficacy (comparison in words) (B16 melanoma (B-16-F0)): appeared more active at 50 mg eq. 20(S)-10-hydroxycamptothecin/kg than PG-gly-(10-O-CPT)
- aqueous solubility / solution behaviour (in words) [3]: solution was very viscous
- Aqueous solubility [3]: 10000 µg/mL
- time after which the compound precipitated out of solution ([3]; dosing solution): approx. 30 min

Substance: PG-(10-OH-CPT)
- Murine single dose MTD (IP) [1]: >50 mg eq. CPT/kg
- relative anti-tumor efficacy (comparison in words) (B16 melanoma (B-16-F0)): not as effective as the PG-(10-OAc-CPT) or the PG-gly-(10-OH-CPT)
- Aqueous solubility [3]: >10000 µg/mL

Substance: PG-(β-ala)-CPT
- MTD [1, 8]: ≧67 mg CPT/kg
- TGD (days to 500 mm^3) B16 (B16 melanoma (B-16-F0); CPT loading 31%, dose 67 mg CPT/kg, PG 50 kD): 1.1 days

Substance: PG-(γ-glu)-CPT
- MTD [1, 8]: ≧54 mg CPT/kg
- TGD (days to 500 mm^3) B16 (B16 melanoma (B-16-F0); CPT loading 21%, dose 54 mg CPT/kg, PG 50 kD): 0.8 days

Substance: PG-CPT
- MTD [1, 8]: ≧80 mg CPT/kg
- Murine single dose MTD (IP) [1]: 60–80 mg eq. CPT/kg
- TGD (days to 500 mm^3) B16 (B16 melanoma (B-16-F0); CPT loading 20%, dose 80? mg CPT/kg, PG 33 kD): 4.0 days
- toxicity observations [4, 9]: without observable toxicity
- tumor growth delay [4, 9]: substantial growth delay

Substance: PG-ala-CPT
- MTD [1, 8]: ≧73 mg CPT/kg
- TGD (days to 500 mm^3) B16 (B16 melanoma (B-16-F0); CPT loading 20%, dose 73 mg CPT/kg, PG 50 kD): 2.2 days

Substance: PG-gly-(10-O-CPT)
- Aqueous solubility [3]: >10000 µg/mL

Substance: PG-gly-(10-OH-CPT)
- relative anti-tumor efficacy (comparison in words) (B16 melanoma (B-16-F0)): approximately twice as efficacious as PG-gly-(7-Et-10-OH-CPT)

Substance: PG-gly-CPT
- MTD in male ncr nu/nu mice ([1]; PG 50 kD, (mono) glycine linker, 35–37% 20(S)-camptothecin): 40 mg/kg 20(S)-camptothecin equivalents
- MTD [1, 8]: ~40 mg CPT/kg
- Murine single dose MTD (IP) [1]: 60–80 mg eq. CPT/kg
- TGD (days to 500 mm^3) B16 (B16 melanoma (B-16-F0); CPT loading 32%, dose 35 mg CPT/kg, PG 50 kD): 3.3 days
- TGD (days to 500 mm^3) HT-29 [2, 10]: 4.1 days
- TGD (days to 500 mm^3) HT-29 ([2]; CPT loading 33%, dose 33 mg CPT/kg): 11.9 days
- TGD (days to 500 mm^3) HT-29 [2, 11]: 20.3 days
- TGD (days to 500 mm^3) HT-29 [2, 12]: 25.8 days
- TGD (days to 500 mm^3) HT-29 [2, 13]: 5.8 days
- tolerability of repeated dosing ([2]; ip, 4 times with a weekly interval, total dose 3 times the single dose): very well tolerated
- TGD (days to 500 mm^3) NCI-H460 [5, 11]: 15.8 days
- TGD (days to 500 mm^3) NCI-H460 [5, 12]: 38.5 days
- TGD (days to 500 mm^3) NCI-H460 [5, 13]: 6.5 days
- toxicity observations [4, 14]: no deaths; also recorded: modestly exceeded the MTD
- weight loss, of the starting weight [4, 14]: approximately 20%
- absolute tumor growth delay (tumors to grow from 8 mm to 12 mm, treated vs control) ([4]; 40 mg/kg 20(S)-camptothecin per injection, days 1, 5, 9, 13): 43 days
- TGD [6]: 40 days
- TGD [7]: 32 days
- tolerability [7]: well-tolerated

Substance: PG-gly-gly-CPT
- MTD [1, 8]: ≧33 mg CPT/kg
- TGD (days to 500 mm^3) HT-29 [2, 10]: 4.5 days

Substance: PG-gly-gly-gly-CPT
- MTD [1, 8]: ≦34 mg CPT/kg
- TGD (days to 500 mm^3) HT-29 [2, 10]: 6.9 days
- TGD (days to 500 mm^3) HT-29 [2, 15]: 28.4 days
- TGD (days to 500 mm^3) NCI-H460 [5, 15]: 38.5 days
